Reference: the supplement of paper PMC7125110
± gives the standard error. For part of these data: Variants at the floor of the assay were thinned out.

B1: glmS ribozyme (parent)
chain: AUAAAAGCGCCAGAACUACAGAAAUGUAGUUGACGAGGAGGAGGUUUAUCGAAUUUUCGGCGGAUGCCUCCAAA

Assays:
Conditions in all cases: with glucosamine-6-phosphate
glucosamine-6-phosphate [1] = variants of: B1; assay: kcat; higher = faster cleavage; RNA array
Method in brief: (§1)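 Barcoded glmS ribozyme variants on sequenced MiSeq chips were transcribed in situ by E. coli RNA polymerase and tracked through a hybridised Cy3 probe at 37 °C. Glucosamine-6-phosphate (40 μM to 10 mM) in HEPES/KCl/Mg(OAc)2 buffer was flowed in, and tiles were imaged over ~14 h. Signals were normalised to baseline and to non-cleaving reference variants; per-tile medians were fit to one- or two-exponential decays to give kobs. kcat and KM came from weighted Michaelis–Menten fits across concentrations.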

glucosamine-6-phosphate [2] = variants of: B1; assay: KM; higher = weaker cofactor use; RNA array
Method in brief: as §1

glucosamine-6-phosphate [3] = variants of: B1; assay: self-cleavage kobs at 40 uM GlcN6P; higher = faster cleavage; RNA array
Method in brief: as §1

glucosamine-6-phosphate [4] = variants of: B1; assay: self-cleavage kobs at 640 uM GlcN6P; higher = faster cleavage; RNA array
Method in brief: as §1

glucosamine-6-phosphate [5] = variants of: B1; assay: self-cleavage kobs at 2500 uM GlcN6P; higher = faster cleavage; RNA array
Method in brief: as §1

glucosamine-6-phosphate [6] = variants of: B1; assay: self-cleavage kobs at 10000 uM GlcN6P; higher = faster cleavage; RNA array
Method in brief: as §1

glucosamine-6-phosphate [7] = variants of: B1; assay: self-cleavage kobs at 160 uM GlcN6P; higher = faster cleavage; RNA array
Method in brief: as §1

| Variant | kcat (glucosamine-6-phosphate [1]) | KM (glucosamine-6-phosphate [2]) | self-cleavage kobs at 40 uM GlcN6P (glucosamine-6-phosphate [3]) | self-cleavage kobs at 640 uM GlcN6P (glucosamine-6-phosphate [4]) | self-cleavage kobs at 2500 uM GlcN6P (glucosamine-6-phosphate [5]) | self-cleavage kobs at 10000 uM GlcN6P (glucosamine-6-phosphate [6]) | self-cleavage kobs at 160 uM GlcN6P (glucosamine-6-phosphate [7]) |
| --- | --- | --- | --- | --- | --- | --- | --- |
| G44A U47A | 0.000358 ± 9.3e-05 s⁻¹ | 3500 ± 1700 µM | < 1e-05 s⁻¹ | 7.28e-05 ± 1.8e-05 s⁻¹ | 0.000137 ± 2.1e-05 s⁻¹ | 0.00028 ± 4.7e-05 s⁻¹ |  |
| G41U A42U | 0.00136 ± 0.00056 s⁻¹ |  | 9.43e-05 ± 1.1e-05 s⁻¹ | 0.000464 ± 5.5e-05 s⁻¹ | 0.00119 ± 0.00014 s⁻¹ | 0.00108 ± 0.00015 s⁻¹ | 0.000106 ± 1.9e-05 s⁻¹ |
| A42C U57G | < 1e-05 s⁻¹ |  | < 1e-05 s⁻¹ |  |  |  | < 1e-05 s⁻¹ |
| G40U U65G G66U | 3.4e-05 ± 4.8e-06 s⁻¹ |  | < 1e-05 s⁻¹ |  |  | 3.38e-05 ± 1.5e-05 s⁻¹ |  |
| A42C U55A | 1.17e-05 ± 4.9e-06 s⁻¹ |  |  |  |  |  |  |
| A42G G44A | 0.00011 ± 2.6e-05 s⁻¹ |  |  |  | 7.65e-05 ± 1.8e-05 s⁻¹ | 8.49e-05 ± 1.1e-05 s⁻¹ |  |
| G41C U55G | 0.00012 ± 1.1e-05 s⁻¹ | 1930 ± 750 µM |  |  | 8.8e-05 ± 3.3e-05 s⁻¹ | 9.95e-05 ± 1.2e-05 s⁻¹ |  |
| G41C U55C | 0.000176 ± 4.4e-05 s⁻¹ |  |  |  | 0.00012 ± 3.6e-05 s⁻¹ | 0.000129 ± 3.9e-05 s⁻¹ |  |
| A42U A52U | 3e-05 ± 6.8e-07 s⁻¹ | 2350 ± 200 µM |  | < 1e-05 s⁻¹ |  | 2.43e-05 ± 9.1e-06 s⁻¹ | < 1e-05 s⁻¹ |
| G40U G41C | 9.58e-05 ± 2.6e-05 s⁻¹ |  |  |  | 8.94e-05 ± 1.2e-05 s⁻¹ | 7.67e-05 ± 1.2e-05 s⁻¹ | < 1e-05 s⁻¹ |
| G40U G41U | 8.36e-05 ± 7.4e-06 s⁻¹ | 901 ± 330 µM | < 1e-05 s⁻¹ | 2.92e-05 ± 8e-06 s⁻¹ | 7.1e-05 ± 8.5e-06 s⁻¹ | 7.34e-05 ± 7e-06 s⁻¹ |  |
| G41U U49G | 3.94e-05 ± 6e-06 s⁻¹ |  | < 1e-05 s⁻¹ |  |  | 3.38e-05 ± 1e-05 s⁻¹ |  |
| G41C U54A | 8.93e-05 ± 2e-05 s⁻¹ |  |  | 7.27e-05 ± 1.6e-05 s⁻¹ | 7.27e-05 ± 1.5e-05 s⁻¹ | 8.37e-05 ± 2.2e-05 s⁻¹ |  |
| G43U U54C | 6.24e-05 ± 1.8e-06 s⁻¹ | 7100 ± 410 µM |  |  |  | 3.65e-05 ± 1.6e-05 s⁻¹ |  |
| G44C G66U | < 1e-05 s⁻¹ |  | < 1e-05 s⁻¹ | < 1e-05 s⁻¹ |  | < 1e-05 s⁻¹ | < 1e-05 s⁻¹ |
| A42U C71A | 0.000146 ± 7.1e-05 s⁻¹ |  |  |  | 3.16e-05 ± 8.6e-06 s⁻¹ | 8.25e-05 ± 2.2e-05 s⁻¹ |  |

| Variant | kcat (glucosamine-6-phosphate [1]) | KM (glucosamine-6-phosphate [2]) | self-cleavage kobs at 40 uM GlcN6P (glucosamine-6-phosphate [3]) | self-cleavage kobs at 640 uM GlcN6P (glucosamine-6-phosphate [4]) | self-cleavage kobs at 2500 uM GlcN6P (glucosamine-6-phosphate [5]) | self-cleavage kobs at 10000 uM GlcN6P (glucosamine-6-phosphate [6]) | self-cleavage kobs at 160 uM GlcN6P (glucosamine-6-phosphate [7]) |
| --- | --- | --- | --- | --- | --- | --- | --- |
| G43A C67A | 0.00175 ± 0.00022 s⁻¹ | 976 ± 200 µM | 7.15e-05 ± 1.3e-05 s⁻¹ | 0.000611 ± 0.00013 s⁻¹ | 0.00156 ± 0.00025 s⁻¹ | 0.00147 ± 0.00026 s⁻¹ | 0.000242 ± 6.6e-05 s⁻¹ |
| A42U U47G | 3.95e-05 ± 1.3e-06 s⁻¹ | 6570 ± 510 µM | < 1e-05 s⁻¹ |  |  | 2.38e-05 ± 9e-06 s⁻¹ |  |
| A42U A64G | 0.000148 ± 1.7e-05 s⁻¹ | 1930 ± 650 µM |  | 3.08e-05 ± 7.7e-06 s⁻¹ | 0.000102 ± 1.3e-05 s⁻¹ | 0.00012 ± 1.1e-05 s⁻¹ |  |
| G41A A42U | 0.000123 ± 4e-06 s⁻¹ | 1440 ± 160 µM |  | 3.91e-05 ± 1.2e-05 s⁻¹ | 7.77e-05 ± 1.3e-05 s⁻¹ | 0.000108 ± 1.2e-05 s⁻¹ |  |
| G41U U54C | 0.00115 ± 0.00032 s⁻¹ |  | 0.000109 ± 1.9e-05 s⁻¹ | 0.000389 ± 0.0001 s⁻¹ | 0.00118 ± 0.00025 s⁻¹ | 0.00117 ± 0.00018 s⁻¹ | 0.000197 ± 4.5e-05 s⁻¹ |
| G43U A73U | 4.34e-05 ± 8.8e-06 s⁻¹ |  |  |  | 4.73e-05 ± 2.1e-05 s⁻¹ | 3.88e-05 ± 1e-05 s⁻¹ |  |
| A42G U56A | 0.0334 ± 0.011 s⁻¹ | 4460 ± 1800 µM | 0.000401 ± 8.1e-05 s⁻¹ | 0.00451 ± 0.001 s⁻¹ | 0.0106 ± 0.0033 s⁻¹ | 0.024 ± 0.0052 s⁻¹ | 0.000893 ± 0.00024 s⁻¹ |
| A42G U56C | 0.00693 ± 0.0014 s⁻¹ | 3180 ± 860 µM | 7.76e-05 ± 1.5e-05 s⁻¹ | 0.00106 ± 0.00018 s⁻¹ | 0.00317 ± 0.0005 s⁻¹ | 0.00522 ± 0.0008 s⁻¹ | 0.000469 ± 8.9e-05 s⁻¹ |
| A42U U45C | 0.000116 ± 1e-05 s⁻¹ | 2890 ± 650 µM |  | 2.56e-05 ± 1.1e-05 s⁻¹ | 5.1e-05 ± 1e-05 s⁻¹ | 9.13e-05 ± 1.2e-05 s⁻¹ |  |
| G40U U69G | < 1e-05 s⁻¹ | 1720 ± 260 µM | < 1e-05 s⁻¹ | < 1e-05 s⁻¹ |  |  | < 1e-05 s⁻¹ |
| A42U | 0.00024 ± 2.1e-05 s⁻¹ | 1350 ± 270 µM | < 1e-05 s⁻¹ | 7.53e-05 ± 1.4e-06 s⁻¹ | 0.000187 ± 3.7e-06 s⁻¹ | 0.000203 ± 2.9e-06 s⁻¹ | 2.06e-05 ± 1.8e-06 s⁻¹ |
| A42G | 0.0432 ± 0.015 s⁻¹ | 1270 ± 530 µM | 0.00143 ± 3.4e-05 s⁻¹ | 0.0128 ± 0.00054 s⁻¹ | 0.0238 ± 0.0016 s⁻¹ | 0.0639 ± 0.0036 s⁻¹ | 0.00406 ± 0.00021 s⁻¹ |
| A42C | 1.83e-05 ± 2.5e-07 s⁻¹ | 5140 ± 190 µM |  |  |  | 1.21e-05 ± 1.4e-06 s⁻¹ |  |
| G43U U46G | 2.88e-05 ± 5.1e-06 s⁻¹ |  |  | < 1e-05 s⁻¹ |  |  |  |
| A42G C71G | 0.00124 ± 0.0003 s⁻¹ | 510 ± 230 µM | 0.000167 ± 3.5e-05 s⁻¹ | 0.000668 ± 8.8e-05 s⁻¹ | 0.000941 ± 0.00016 s⁻¹ | 0.00158 ± 0.0003 s⁻¹ | 0.000264 ± 4.3e-05 s⁻¹ |
| G44A A53G | 0.000575 ± 4.5e-05 s⁻¹ | 2460 ± 440 µM |  | 0.000116 ± 2.3e-05 s⁻¹ | 0.000319 ± 6.7e-05 s⁻¹ | 0.000456 ± 4.8e-05 s⁻¹ |  |
